To fix the notation:
B1: UBE1C (protein, UniProt Q8TBC4 2-463, looked up)
NEDD8-activating enzyme E1 …: ADGEEPEKKRRRIEELLAEKMAVDGGCGDTGDWEGRWNHVKKFLERSGPFTHPDFEPSTESLQFLLDTCKVLVIGAGGLGCELLKNLALSGFRQIHVIDMDTIDVSNLNRQFLFRPKDIGRPKAEVAAEFLNDRVPNCNVVPHFNKIQDFNDTFYRQFHIIVCGLDSIIARRWINGMLISLLNYEDGVLDPSSIVPLIDGGTEGFKGNARVILPGMTACIECTLELYPPQVNFPMCTIASMPRLPEHCIEYVRMLQWPKEQPFGEGVPLDGDDPEHIQWIFQKSLERASQYNIRGVTYRLTQGVVKRIIPAVASTNAVIAAVCATEVFKIATSAYIPLNNYLVFNDVDGLYTYTFEAERKENCPACSQLPQNIQFSPSAKLQEVLDYLTNSASLQMKSPAITATLEGKNRTLYLQSVTSIEERTRPNLSKTLKELGLVDGQELAVADVTTPQTVLFKLHFTS
B2: ZMYM2 (protein, UniProt Q9UBW7 1-1377, looked up)
Zinc finger MYM-type protein 2: MDTSSVGGLELTDQTPVLLGSTAMATSLTNVGNSFSGPANPLVSRSNKFQNSSVEDDDDVVFIEPVQPPPPSVPVVADQRTITFTSSKNEELQGNDSKITPSSKELASQKGSVSETIVIDDEEDMETNQGQEKNSSNFIERRPPETKNRTNDVDFSTSSFSRSKVNAGMGNSGITTEPDSEIQIANVTTLETGVSSVNDGQLENTDGRDMNLMITHVTSLQNTNLGDVSNGLQSSNFGVNIQTYTPSLTSQTKTGVGPFNPGRMNVAGDVFQNGESATHHNPDSWISQSASFPRNQKQPGVDSLSPVASLPKQIFQPSVQQQPTKPVKVTCANCKKPLQKGQTAYQRKGSAHLFCSTTCLSSFSHKPAPKKLCVMCKKDITTMKGTIVAQVDSSESFQEFCSTSCLSLYEDKQNPTKGALNKSRCTICGKLTEIRHEVSFKNMTHKLCSDHCFNRYRMANGLIMNCCEQCGEYLPSKGAGNNVLVIDGQQKRFCCQSCVSEYKQVGSHPSFLKEVRDHMQDSFLMQPEKYGKLTTCTGCRTQCRFFDMTQCIGPNGYMEPYCSTACMNSHKTKYAKSQSLGIICHFCKRNSLPQYQATMPDGKLYNFCNSSCVAKFQALSMQSSPNGQFVAPSDIQLKCNYCKNSFCSKPEILEWENKVHQFCSKTCSDDYKKLHCIVTYCEYCQEEKTLHETVNFSGVKRPFCSEGCKLLYKQDFARRLGLRCVTCNYCSQLCKKGATKELDGVVRDFCSEDCCKKFQDWYYKAARCDCCKSQGTLKERVQWRGEMKHFCDQHCLLRFYCQQNEPNMTTQKGPENLHYDQGCQTSRTKMTGSAPPPSPTPNKEMKNKAVLCKPLTMTKATYCKPHMQTKSCQTDDTWRTEYVPVPIPVPVYIPVPMHMYSQNIPVPTTVPVPVPVPVFLPAPLDSSEKIPAAIEELKSKVSSDALDTELLTMTDMMSEDEGKTETTNINSVIIETDIIGSDLLKNSDPETQSSMPDVPYEPDLDIEIDFPRAAEELDMENEFLLPPVFGEEYEEQPRPRSKKKGAKRKAVSGYQSHDDSSDNSECSFPFKYTYGVNAWKHWVKTRQLDEDLLVLDELKSSKSVKLKEDLLSHTTAELNYGLAHFVNEIRRPNGENYAPDSIYYLCLGIQEYLCGSNRKDNIFIDPGYQTFEQELNKILRSWQPSILPDGSIFSRVEEDYLWRIKQLGSHSPVALLNTLFYFNTKYFGLKTVEQHLRLSFGTVFRHWKKNPLTMENKACLRYQVSSLCGTDNEDKITTGKRKHEDDEPVFEQIENTANPSRCPVKMFECYLSKSPQNLNQRMDVFYLQPECSSSTDSPVWYTSTSLDRNTLENMLVRVLLVKDIYDKDNYELDEDTD
B3: TMEM63B (protein, UniProt Q5T3F8 1-832, looked up)
Mechanosensitive cation …: MLPFLLATLGTTALNNSNPKDYCYSARIRSTVLQGLPFGGVPTVLALDFMCFLALLFLFSILRKVAWDYGRLALVTDADRLRRQERDRVEQEYVASAMHGDSHDRYERLTSVSSSVDFDQRDNGFCSWLTAIFRIKDDEIRDKCGGDAVHYLSFQRHIIGLLVVVGVLSVGIVLPVNFSGDLLENNAYSFGRTTIANLKSGNNLLWLHTSFAFLYLLLTVYSMRRHTSKMRYKEDDLVKRTLFINGISKYAESEKIKKHFEEAYPNCTVLEARPCYNVARLMFLDAERKKAERGKLYFTNLQSKENVPTMINPKPCGHLCCCVVRGCEQVEAIEYYTKLEQKLKEDYKREKEKVNEKPLGMAFVTFHNETITAIILKDFNVCKCQGCTCRGEPRPSSCSESLHISNWTVSYAPDPQNIYWEHLSIRGFIWWLRCLVINVVLFILLFFLTTPAIIITTMDKFNVTKPVEYLNNPIITQFFPTLLLWCFSALLPTIVYYSAFFEAHWTRSGENRTTMHKCYTFLIFMVLLLPSLGLSSLDLFFRWLFDKKFLAEAAIRFECVFLPDNGAFFVNYVIASAFIGNAMDLLRIPGLLMYMIRLCLARSAAERRNVKRHQAYEFQFGAAYAWMMCVFTVVMTYSITCPIIVPFGLMYMLLKHLVDRYNLYYAYLPAKLDKKIHSGAVNQVVAAPILCLFWLLFFSTMRTGFLAPTSMFTFVVLVITIVICLCHVCFGHFKYLSAHNYKIEHTETDTVDPRSNGRPPTAAAVPKSAKYIAQVLQDSEVDGDGDGAPGSSGDEPPSSSSQDEELLMPPDALTDTDFQSCEDSLIENEIHQ
B4: TRAF3IP3 (protein, UniProt Q9Y228 1-551, looked up)
TRAF3-interacting …: MISPDPRPSPGLARWAESYEAKCERRQEIRESRRCRPNVTTCRQVGKTLRIQQREQLQRARLQQFFRRRNLELEEKGKAQHPQAREQGPSRRPGQVTVLKEPLSCARRISSPREQVTGTSSEVFPAQHPPPSGICRDLSDHLSSQAGGLPPQDTPIKKPPKHHRGTQTKAEGPTIKNDASQQTNYGVAVLDKEIIQLSDYLKEALQRELVLKQKMVILQDLLSTLIQASDSSWKGQLNEDKLKGKLRSLENQLYTCTQKYSPWGMKKVLLEMEDQKNSYEQKAKESLQKVLEEKMNAEQQLQSTQRSLALAEQKCEEWRSQYEALKEDWRTLGTQHRELESQLHVLQSKLQGADSRDLQMNQALRFLENEHQQLQAKIECLQGDRDLCSLDTQDLQDQLKRSEAEKLTLVTRVQQLQGLLQNQSLQLQEQEKLLTKKDQALPVWSPKSFPNEVEPEGTGKEKDWDLRDQLQKKTLQLQAKEKECRELHSELDNLSDEYLSCLRKLQHCREELNQSQQLPPRRQCGRWLPVLMVVIAAALAVFLANKDNLMI
B5: ACLY (protein, UniProt P53396 1-1101, looked up)
ATP-citrate synthase: MSAKAISEQTGKELLYKFICTTSAIQNRFKYARVTPDTDWARLLQDHPWLLSQNLVVKPDQLIKRRGKLGLVGVNLTLDGVKSWLKPRLGQEATVGKATGFLKNFLIEPFVPHSQAEEFYVCIYATREGDYVLFHHEGGVDVGDVDAKAQKLLVGVDEKLNPEDIKKHLLVHAPEDKKEILASFISGLFNFYEDLYFTYLEINPLVVTKDGVYVLDLAAKVDATADYICKVKWGDIEFPPPFGREAYPEEAYIADLDAKSGASLKLTLLNPKGRIWTMVAGGGASVVYSDTICDLGGVNELANYGEYSGAPSEQQTYDYAKTILSLMTREKHPDGKILIIGGSIANFTNVAATFKGIVRAIRDYQGPLKEHEVTIFVRRGGPNYQEGLRVMGEVGKTTGIPIHVFGTETHMTAIVGMALGHRPIPNQPPTAAHTANFLLNASGSTSTPAPSRTASFSESRADEVAPAKKAKPAMPQDSVPSPRSLQGKSTTLFSRHTKAIVWGMQTRAVQGMLDFDYVCSRDEPSVAAMVYPFTGDHKQKFYWGHKEILIPVFKNMADAMRKHPEVDVLINFASLRSAYDSTMETMNYAQIRTIAIIAEGIPEALTRKLIKKADQKGVTIIGPATVGGIKPGCFKIGNTGGMLDNILASKLYRPGSVAYVSRSGGMSNELNNIISRTTDGVYEGVAIGGDRYPGSTFMDHVLRYQDTPGVKMIVVLGEIGGTEEYKICRGIKEGRLTKPIVCWCIGTCATMFSSEVQFGHAGACANQASETAVAKNQALKEAGVFVPRSFDELGEIIQSVYEDLVANGVIVPAQEVPPPTVPMDYSWARELGLIRKPASFMTSICDERGQELIYAGMPITEVFKEEMGIGGVLGLLWFQKRLPKYSCQFIEMCLMVTADHGPAVSGAHNTIICARAGKDLVSSLTSGLLTIGDRFGGALDAAAKMFSKAFDSGIIPMEFVNKMKKEGKLIMGIGHRVKSINNPDMRVQILKDYVRQHFPATPLLDYALEVEKITTSKKPNLILNVDGLIGVAFVDMLRNCGSFTREEADEYIDIGALNGIFVLGRSMGFIGHYLDQKRLKQGLYRHPWDDISYVLPEHMSM
B6: ARFIP1 (protein, UniProt P53367 2-373, looked up)
Arfaptin-1: AQESPKNSAAEIPVTSNGEVDDSREHSFNRDLKHSLPSGLGLSETQITSHGFDNTKEGVIEAGAFQGSPAPPLPSVMSPSRVAASRLAQQGSDLIVPAGGQRTQTKSGPVILADEIKNPAMEKLELVRKWSLNTYKCTRQIISEKLGRGSRTVDLELEAQIDILRDNKKKYENILKLAQTLSTQLFQMVHTQRQLGDAFADLSLKSLELHEEFGYNADTQKLLAKNGETLLGAINFFIASVNTLVNKTIEDTLMTVKQYESARIEYDAYRTDLEELNLGPRDANTLPKIEQSQHLFQAHKEKYDKMRNDVSVKLKFLEENKVKVLHNQLVLFHNAIAAYFAGNQKQLEQTLKQFHIKLKTPGVDAPSWLEEQ

The source of these data is patent US20110091994A1, “Methods for Screening Compounds for Treating and/or Preventing an Hepatitis C Virus Infection” (priority 2008, published 2011).
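Further: yeast two-hybrid screens using HCV genotype 1b proteins fused to Gal4-DB as baits against prey cDNA libraries from human spleen and foetal brain, IMAP1 via transformation and IMAP2 via mating.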

One assay addresses T1, HCV ORFs (Gal4-DB fusions) (Hepatitis C virus genotype 1b, UniProt Q9WMX2).
T1 construct: expressed in transfected cells; host or cells: Saccharomyces cerevisiae MAV203 (IMAP1) / AH109 (IMAP2)
The format is binding, HCV genotype 1b, isolate con1. Particulars: HCV protein NS3 as bait; human protein as prey.
Take B1: the “IMAP Y2H IMAP2 (number of IST)” value is given as 1.
As for B2, the “IMAP Y2H IMAP2 (number of IST)” value worked out at 2.
Same read-out and setting: the result for B3 reads 1.

Still in this assay, the particulars now being: HCV protein NS4A as bait; human protein as prey.
On to B4, for which the “IMAP Y2H IMAP2 (number of IST)” value is on record as 1.

Staying with this assay, now noted: HCV protein NS5A as bait; human protein as prey.
Turning to B5, the “IMAP Y2H IMAP2 (number of IST)” value stood at 1.
The same measure, in the same setting: the figure for B6 is 9.

Another assay concerns HCV ORFs (Gal4-DB fusions). The format is binding, HCV genotype 1b, isolate con1. The note with it: human protein listed by gene symbol; the value names the HCV protein it interacts with.
As for B5, the “Interaction with viral protein” value was “NS5A”.
Take B1: the “Interaction with viral protein” value is “NS3”.
Regarding B2, the “Interaction with viral protein” value is on record as “NS3”.
Still for that read-out and setting: the entry for B3 is “NS3”; for B6 it is “NS5A”; for B4 it is “NS4A”.
